Measurements reported in the nanobody polyreactivity screen of Harvey et al. (2022).

Assay: yeast display, Sf9 membrane polyspecificity reagent, FACS + sequencing; frameworks hold sequencing errors
Procedure, shortened: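 Galactose-induced (36–48 hours) yeast carrying a synthetic nanobody display library were exposed to 10% biotinylated, detergent-solubilized Sf9 membrane reagent at 4 °C for 1 hour. FACS followed streptavidin microbead enrichment, using low and high (top ~1%) gates for expression (anti-HA) and reagent binding (streptavidin). Colony PCR, MiSeq 2 × 250 sequencing and CDR-length filtering followed. Labels for polyreactivity reflect the gate of origin.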

Row | Sequence | polyreactivity (PSR sort gate)
1 | QVQLIESGGGLVHAGGSLRLSCAASGSTYQANTMGWYSHAPGKERQLVAAISIRGANTYYADSVKGRFTISRDNAKNTVYIQMNSLKPEDTAVYDCATRVRKYSLRLDYWGQGTQVTVSS | high polyreactivity
2 | QVQLIESGGGLVQAGGSLRLSCAASGGTFRAYAMGWYRQAPGKEREFVAAITWSGGRTYYADSVKGRFTISRDNAKNTVYLQMNSLKPEDTEVYYCATDQGHYYHAEHDYWGQGTQVTVSS | low polyreactivity
3 | QVQLIESGGGLVQAGGSLRLSCAASGLTFYSYAMGWYRQAPGKEREFVAVINWSGGRTYYADSVKGRFTISRDTAKNTVFLQMNSLKPEDTAVYYCAAVRYFASSRRYDYLGQGTQVTVSS | high polyreactivity
4 | QVQLIESGGGLVQAGGSLRLSCAASGNIFAVYAMGWYRQAPGKERELVASITVSGASTYYADSVKGRFTISRDNAKNTVYLQMNSLKPEDTAVYYCAARIGSNQRKRYYWGQGTQVTVSS | high polyreactivity
5 | QVQLIESGGGLVQAGGSLRLSCAASGSIFYINTMGWYRQAPGKERELVATIRTSGGSTYADSVKGRFTISRDNAKNTVYLQMNSLKPEDTAVYYCAVRRYRSSSYGYYSWGQGTQVTVSS | high polyreactivity
6 | QVQLIESGGGLVQAGGSLRLSCAASGSTGIYAMGWYRQAPGKERELVAAITRRAGSTYYADSVKGRFTISRDNAKNTVYLQMNSLKPEDTAVYYCAAKGLWWYGTYVSYEYWGKGTQVTVSS | low polyreactivity
7 | QVQLKDSGCGLVQAGGSLRLSCAASGTISYRYRMGWYREAPRKELELVAGISFGSITYYADSVKGRFTISRDNAKNTVYLQMNSLKPVDIAVYYCAVYQKSYRFFPYWGQGTQVTVSS | high polyreactivity
8 | QVQLKESGGGLVQAGGSLRLSCAASGNIVDADIMGWYRQAPGKERELVASITDGGSTNYADSVKGRFTISRDNAKNTVYLQMNSLKPEDTAVYYCAAIAYPDIPTYFDYDSEYFYWGQGTQVTVSS | low polyreactivity
9 | QVQLLESAGGLVQAGGSLRLSCAASGTIGYNGWYRQAPGKERELVAAISTRDGSTYYADSVKGRFTISRDNAMNTGYLQINSLKPEDTAVYYCAARYPSDYDYWGQGTQVTVSS | low polyreactivity
10 | QVQLLESCGGLVQAGGSLRLSCAASGIIFARYAMGWYRPAPGKERELVASITTSGGRTYYADSVKGRFTISRDNAKNTVYLQMNSVKPEDTAVYYCAAYYKRDQMYYWGQGTQVTVSS | high polyreactivity
11 | QVQLLESGCGLVQAGGSLRLSCMASGSSLGDRMSWYRQAPGKEHELVATIYDGGITYYADSMKGRFTISRENAKNSVYLQMNSLRPEDTAVYYCGDSFEGYRYHVYCGQGTQVTVSS | low polyreactivity
12 | QVQLLESGGGIVQAGGSLRLSCVASGFTISVYAMVWYRHAPGKERELVAAISRVGSSNYADSVKGRFTISRDNAKNTVYLHMISLKTEDTSVYYCNAVLRHTWVSRGYGSWGQGTQVSVSS | high polyreactivity
13 | QVQLLESGGGLDQSGGSLRLSCAASGRIFTFNAMGWYRQAPGQERELVAAIRFRDGSTYYADSVKGRFTISRDNAKNNGYLQMYSLKPEDTAVYYSAATAYPWPYYYWGQGTQVTVSS | high polyreactivity
14 | QVQLLESGGGLFQAGGILRLSCAASGLIFWSNAMGWYRKEPGKERELVAAISRRGGRTYYADSVKGRFTISRDNAKNTVYVQMNSLKPEDSALYYCNADLYFLTFGYDYWGQGTQVTVSS | high polyreactivity
15 | QVQLLESGGGLVQAGGRHRLSCAASGRTFPGNAMGWYRKAPGKERELVAAISWSVDRTYYADSVKGRFTISRDNAKNTVYLQMNSLKPEDTSVYYCAAVEWWSSSLRMYYWGQGTQETVSS | low polyreactivity
16 | QVQLLESGGGLVQAGGSHRLSCAASGYIFHYNAMGWYIQAPGKERELVAAISYSGGSTYYADSVKGRFTISRDNAKNTVYLQMNSLKPEDTAVYYCAASRRPFPGYYWGQGTQVTVSS | high polyreactivity
17 | QVQLLESGGGLVQAGGSIRLSCSASGRTFARYVMGWYRQAPGKERELVASISNSGGSTYYSDSVKGRFTISRDNAQNTVYLQMNSLKPEDTEVYYCARRYYYYTTYRYDYWGQGTQVTVSS | high polyreactivity
18 | QVQLLESGGGLVQAGGSLRFTGAASGSTIAGNAMVWYRHEPGKERELVAVITRGGSTNYADSVKGRFTISRDNAKNNVYLQMNSLKPEDTAVYYCARYRFLLDYWRGGYYWGQGTQVTVSS | high polyreactivity
19 | QVQLLESGGGLVQAGGSLRISCAASGFTFWYYAMGWYRQAPGKERELVAAITSSGGSTYYADSVKGRFTISRDNAKNTVYLQMNSLKPEDTAVYYCAAGAPYRYYYWGQGTQVTVSS | high polyreactivity
20 | QVQLLESGGGLVQAGGSLRISCAASGIFDPNAMGWYIQAPGKERELVAAITSGGSTNYADSVKGRFTISRDNAKNTFYLQMNSLKPEDTAVYYCNEDYDRPDFYFWVQGTQVTVSS | low polyreactivity
21 | QVQLLESGGGLVQAGGSLRISCAASGRTFTYNAMGWYRQAPGKERELVAAITASGGSTYYADSVKGRFTISRDNAKNTVYLQMNSLKPEDTAVYYCAARWSSPYVKLGYWGQGTQVTVSS | high polyreactivity
22 | QVQLLESGGGLVQAGGSLRLRCAASGFTFRKYTMGWYRQAPGKERELVAAISSGVSTNYADSVKGRFTISRDNAKKTVYLQMNSLKAEDTAVYYCAARGGYYQGRYKYGYWGQGTQVTVSS | high polyreactivity

Row | Sequence | polyreactivity (PSR sort gate)
23 | QVQLLESGGGLVQAGGSLRLSCAASGFIFYEYAMGWYRQAPGKERELVAAITSGGSTDYADSVKGRFTISRDNAKNTVYLQMNSLKPEDTAVYYCNADLFTGYYWYNYWGQGTQVTVSS | low polyreactivity
24 | QVQLLESGGGLVQAGGSLRLSCAASGGTFPQYAMGWYRKAPGKERELVAVNTRSGRTNYADTVKARFTISRDNAKNTVYVQMNSLKPEDTAVYYCNADEVDDEVSPDLTEMDYWGQGTQVTVSS | low polyreactivity
25 | QVQLLESGGGLVQAGGSLRLSCAASGLIMVYYTMGWYRQAPGKERELVASISKSGGRTYYADSVKGRFTISRDNAKNTVYLQMNSLKPEDTAVYYCAAQRVQYSRRDYWGQGTQVTVSS | high polyreactivity
26 | QVQLLESGGGLVQAGGSLRLSCAASGLTVYGYVMAWYRHAPGKERELVASISRSGCRTYYADSVKGRFTISRDNEKNTVYLQMNSLKPEDTAVYYCAADDQVGQEDDYWGQGTQVTVSS | low polyreactivity
27 | QVQLLESGGGLVQAGGSLRLSCAASGNTLRYNVMGWYRQAPGKERELFAAISGGGSTSYADSVKGRFTISRDNAKNTVYLQMNSLKPEDTAVYYCAKRSFVGGRGRDSDYRGQGTQVTVSS | low polyreactivity
28 | QVQLLESGGGLVQAGGSLRLSCAASGRIFPRYAMGWYRQAPGKERELVASITRRGGSTYYADSVKGRFTISRDNAKNTVYLQMNSLKPEDTAVYYCNALPRAQSYELYNYWGQGTQVTVSS | high polyreactivity
29 | QVQLLESGGGLVQAGGSLRLSCAASGRIFYVNAMGWYRQSPGKERELVAGIDDGVTTYYADSVKGRFTISRDNAKNTVYLLMNRLKPEDTAVYYCAAETSTNPEAYEYWGQGTQVTVSS | low polyreactivity
30 | QVQLLESGGGLVQAGGSLRLSCAASGRTFVSYDMGWDRQAPGKEREVVAAITYSGGASTYYADSVKGRFTISRDYAKKTGYFQMNSLIPEDTAVYYCATDFSLSFELDYWGQGTQVTVSS | low polyreactivity
31 | QVQLLESGGGLVQAGGSLRLSCAASGRTFWAYAMGWYRQAPGKERELVAAIDGGDGSTYYADSVKGRFTISRDYAKNTVYLQMNSLKPEDTAVYYCAAETPSGYYPQQYDYYLGQGTQVTVSS | high polyreactivity
32 | QVQLLESGGGLVQAGGSLRLSCAASGSIFGGNARGWSRQAPGKERELVAAITYSGGSTYYADSVKGRFTISRDNAKNTVYLQMNSLKPEDTAVYYCNADGVVTWYDYWGQGTQVTVSS | low polyreactivity
33 | QVQLLESGGGLVQAGGSLRLSCAASGSIFGYYAMGWYRQAPGKERELVAAISVNGGRTYYADSVKWRFTISRDIAKNTVYLQMNMLKPEDTAVSYCAAELVDFITFRGDFYYWGQGTEVTVSS | high polyreactivity
34 | QVQLLESGGGLVQAGGSLRLSCAASGSIFLTYAMGWYRQAPGKERELVAAISSSGGSTYYADSVKGRFTISRDNSKNTVYLQMNSLKPEVTAVYYCNAAYHFRRTLGRDHWGQGTEVTVSS | low polyreactivity
35 | QVQLLESGGGLVQAGGSLRLSCAASGSIFRANAMGWYRQAPGKERELVAAITNGGRTNYADSVKGRFTISRDNAKNTVYLQMNSLKPEDTAVYYCAKDIYQHAKRRYDYWGQGTQVTVSS | low polyreactivity
36 | QVQLLESGGGLVQAGGSLRLSCAASGSIFRGYAMGWYRQAPGKERELVAGIRGSDGSTYYADSVKGRFTISRDNAKNTVYLQMNSLKPEDTAVYYCAADRRYLDRDKHRYGYWGQGTQVTVSS | low polyreactivity
37 | QVQLLESGGGLVQAGGSLRLSCAASGSIFVINVMGWYRQAPRKDRELVATITGGRSTKYADSVNGRFTISRDNAKNTVYLQMNSLKPEDTAVYYCNIQSKSRGVHDPSGYDYWGQGTQVTVSS | low polyreactivity
38 | QVQLLESGGGLVQAGGSLRLSCAASGSIFWYNAMGWYRQAPGKERELVATISSRGDGTYYADSVKGRFTISRDNAKNTVYLQMNSLKPEDTAVYYCNKYRQQGWEFDYWGQGTQVTVSS | high polyreactivity
39 | QVQLLESGGGLVQAGGSLRLSCAASGSTFKKNAMGWYRQAPGKETELVAAISGIGTRTSYADSLKGRFTISRDNAKNTVYLQMNRLKPEDTAVYYCAARYYGFPSTLKYDYWGQGTQVTVSS | high polyreactivity
40 | QVQLLESGGGLVQAGGSLRLSCAASGSTFYYYAMGWYRQAPGKERELVAAITSGGRTYYADSQKGRFTNSRDNAKNTVYLQMNSLKPEDTAVYYSNKRWTIWGYDYWAQGTQVTVSS | high polyreactivity
41 | QVQLLESGGGLVQAGGSLRLSCAASGYIFGWYTMGWYRQAPGKERELVAAISYSGGDTYYADSVKGRFTNTRDNAKNTVYLQMNSLKPEDTAVYYCAAVDPASPLGEYWGQGTQVTVSS | low polyreactivity
42 | QVQLLESGGGLVQAGGSLRLSCAASGYIFLRNAMGWYRQAPGKERELVAAIRRTGGSTYYADSVKGRFTISRDNAKNTVYLQMNSLKPEDTAVYYCAKRSYTGYEYWGQGTQVTVSS | low polyreactivity
43 | QVQLLESGGGLVQAGGSLRLSCAATRRIFEYNGMGWYRQAPGKDSELVAAIEWNGSPTYADSVKGRFTIARDNAKNTVYLLMNSLKPEDTSVYYCAKAYPGKAPKYDYWGQGTQVTVSS | low polyreactivity
